Assay results: patent KR20120084755A

Biological target: RSV A2 바이러스의 F 단백질 (Respiratory Syncytial Virus (RSV), strain A2) (UniProt P03420)
Assay: cell-based or functional assay

Chain of UniProt P03420 (P03420 26-574): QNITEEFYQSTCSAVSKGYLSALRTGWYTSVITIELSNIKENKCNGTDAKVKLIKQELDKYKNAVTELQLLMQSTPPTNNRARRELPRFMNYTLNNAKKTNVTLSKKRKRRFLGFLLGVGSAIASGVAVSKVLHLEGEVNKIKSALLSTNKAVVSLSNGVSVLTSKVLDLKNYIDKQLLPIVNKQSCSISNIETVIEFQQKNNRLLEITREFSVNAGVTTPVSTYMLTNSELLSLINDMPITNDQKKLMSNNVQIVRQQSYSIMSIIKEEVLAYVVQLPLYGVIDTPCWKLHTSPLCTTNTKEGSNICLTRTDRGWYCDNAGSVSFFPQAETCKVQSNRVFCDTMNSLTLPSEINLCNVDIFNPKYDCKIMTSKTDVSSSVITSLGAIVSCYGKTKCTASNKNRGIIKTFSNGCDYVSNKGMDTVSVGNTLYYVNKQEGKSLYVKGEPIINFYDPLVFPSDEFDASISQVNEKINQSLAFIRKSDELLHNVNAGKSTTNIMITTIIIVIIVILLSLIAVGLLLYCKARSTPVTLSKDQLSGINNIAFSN

Substance | IC50, RSV A2 neutralisation on HEp2 cells (standard TCID50 culture assay) [ng/㎖]
D25 (antibody) | 1.28
팔리비주마브(Palivizumab) (antibody) | 152
AM23 (antibody) | 4.18
AM16 (antibody) | 78.7
